The record followed here is US20150111836A1, “CELLULAR APOBEC3 PROTEINS AND MODULATORS THEREOF FOR REGULATING DNA REPAIR PROCESSES AND TREATING PROLIFERATIVE DISEASES” (priority 2012, published 2015).

In test [1] the target is virion-associated A3G (endogenous A3G of H9 cells packaged in HIV-1 particles) (human) (UniProt Q9HC16). Briefly: cell-based or functional assay.
Test [2] has as its target purified recombinant A3G-His6 (human APOBEC3G with C-terminal Myc-His6 tag, expressed in 293T cells) (human) (UniProt Q9HC16). Briefly: cell-based or functional assay.

purified recombinant A3G-His6 (human APOBEC3G with C-terminal Myc-His6 tag, expressed in 293T cells) (human), sequence (Q9HC16 whole entry): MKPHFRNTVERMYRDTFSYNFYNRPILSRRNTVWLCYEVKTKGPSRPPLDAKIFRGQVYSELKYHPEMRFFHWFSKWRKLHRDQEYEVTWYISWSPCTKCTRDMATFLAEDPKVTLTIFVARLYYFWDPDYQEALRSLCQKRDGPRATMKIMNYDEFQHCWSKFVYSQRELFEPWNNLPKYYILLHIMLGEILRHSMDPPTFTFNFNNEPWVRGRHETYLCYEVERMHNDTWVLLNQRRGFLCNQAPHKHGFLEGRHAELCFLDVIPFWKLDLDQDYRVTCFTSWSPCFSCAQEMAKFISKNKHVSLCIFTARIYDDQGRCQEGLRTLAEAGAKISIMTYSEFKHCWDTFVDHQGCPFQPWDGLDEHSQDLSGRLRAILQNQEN

Regarding “Vif molecules associated with HIV-1 particles (wt HIV-1 HXB2 virions) (from UniProt P05900 1-192)”, the specific activity of virion-associated A3G deaminase (wt vs Δvif particles, normalized to A3G protein content) in test [1] is 36.5%.
On to Vif101-115 peptide, for which the inhibition of A3G deaminase activity in test [2] came out at 1 µM.
Still for that read-out and setting: as for Vif37-51 peptide, the figure is 1 µM; as for Vif9-23 peptide, 1 µM; as for Vif113-127 peptide, 1 µM.
BSA (from UniProt P02769 25-607): the A3G deaminase activity in test [2] is 10 µM.
